In patent US20150086555A1 (THERACLONE SCIENCES, published 2015):

B1: TCN-556 (5089_K12) (antibody, V domains shown)
VH: QVQLVQSGAEVKKPGASVKVSCKASGYTFIGYDMHWVRQAPGQGLEWMGWINAKRGGTNYAQKFQGRVTMTRDTSISTAYMELNSLRSDDTAVYYCARGVGSRTTIFGVLNPEFDYWGQGTLVTVSS
VL: QSALTQPPSASGSPGQSVTISCTGSSSDVGGYDYVSWYQQHPGKAPKLLIYEVTKRPSGVPDRFSGSKSGNTASLTVSGLQAEDEADYYCSSYAGNYNHVFGPGTKVTVL
B2: TCN-560 (5084_P10) (antibody, V domains shown)
VH: EVQLVESGGGLVQPGGSLRLSCAASGFIFRNYWMSWVRQAPGKGLEWVANIKQDGREKYYVDSLRGRVNISRDNAENSLYLHMNSLRVEDTAVYFCARARMVVVTGDGFDVWGHGTMVTVSS
VL: DIQMTQSPSSLSASVGDRVTITCRASQNIKRYFNWYQQKPGKAPKLLIYAASNLENGVPSRFSGSGSGTDFTLTISSLQPEDFATYYCQQSFSKSWTFGQGTNVDIK
B3: TCN-533 (5256_A17a) (antibody, V domains shown)
VH: QVQLVQSGADVKKPGSSVTVSCKASGGSFSNYGINWVRQAPGQGLEWMGGIIPLINAPNYAPKFQGRVTITADMFSNIVSLQLTSLRTDDTAVYYCARRKMTTAIDYWGQGTLVTVSS
VL: QPVLTQPPSASASLGASVTLTCTLSSAYSNYKVDWYQQRPGKGPRFVMRVGTGGIVGSKGDGIPDRFSVLGSGLNRYLTIKNIQEEDESDYHCGADHGSGSNFVSPYVFGGGTKLTVL
B4: TCN-560 (5084_P10) (antibody, V domains shown)
VH: B2 VH
VL: B2 VL

Columns and labels:
[1] = target: recombinant soluble homotrimeric HA, A/chicken/Vietnam/NCVD-016/08 H5N1 (Influenza A virus …); experiment: microarray, transfection SN IgG, trimeric HA
[2] = target: recombinant soluble homotrimeric HA, A/Solomon Islands/3/06 H1N1 (Influenza A virus A/Solomon …); experiment: microarray, transfection SN IgG, trimeric HA
[3] = target: recombinant soluble homotrimeric HA, A/Egypt/3300-NAMRU3/08 H5N1 (Influenza A virus …); experiment: microarray, transfection SN IgG, trimeric HA
[4] = target: recombinant soluble homotrimeric HA, A/Japan/305/57 H2N2 (Influenza A virus A/Japan/305/1957(H2N2)); experiment: microarray, transfection SN IgG, trimeric HA
[5] = target: recombinant soluble homotrimeric HA, A/duck/Yangzhou/02/05 H8N4 (Influenza A virus …); experiment: microarray, transfection SN IgG, trimeric HA
[6] = target: recombinant soluble homotrimeric HA, A/Vietnam/1203/04 H5N1 (Influenza A virus …); experiment: microarray, transfection SN IgG, trimeric HA
[7] = target: recombinant soluble homotrimeric HA, A/Wisconsin/67/05 H3N2 (Influenza A virus …); experiment: microarray, transfection SN IgG, trimeric HA
[8] = target: recombinant soluble homotrimeric HA, A/northern shoveler/California/HKWF115/07 H6N4 (Influenza A virus A/northern …); experiment: microarray, transfection SN IgG, trimeric HA
[9] = target: recombinant soluble homotrimeric HA, A/Indonesia/5/05 H5N1 (Influenza A virus …); experiment: microarray, transfection SN IgG, trimeric HA
[10] = target: recombinant soluble homotrimeric HA, A/Anhui/1/05 H5N1 (Influenza A virus A/Anhui/1/2005(H5N1)); experiment: microarray, transfection SN IgG, trimeric HA
[11] = target: recombinant soluble homotrimeric HA, A/California/4/09 H1N1 (Influenza A virus …); experiment: microarray, transfection SN IgG, trimeric HA
[12] = target: recombinant soluble homotrimeric HA, A/Netherlands/219/03 H7N7 (Influenza A virus …); experiment: microarray, transfection SN IgG, trimeric HA
[13] = target: recombinant soluble homotrimeric HA, A/swine/Ontario/01911-2/99 H4N6 (Influenza A virus …); experiment: microarray, transfection SN IgG, trimeric HA
[14] = target: recombinant soluble homotrimeric HA, A/South Carolina/1/18 H1N1 (Influenza A virus A/South Carolina/1/18 …); experiment: microarray, transfection SN IgG, trimeric HA
[15] = target: recombinant soluble homotrimeric HA, A/Hong Kong/156/97 H5N1 (Influenza A virus A/Hong Kong/156/97 …); experiment: microarray, transfection SN IgG, trimeric HA
[16] = target: hemagglutinin on whole influenza A virions, A/Solomon Islands/3/06 H1N1 (Influenza A virus A/Solomon …); experiment: cell-based or functional assay
[17] = target: hemagglutinin on whole influenza A virions, A/Wisconsin/67/05 H3N2 (Influenza A virus …); experiment: cell-based or functional assay
[18] = target: hemagglutinin on live influenza A virus, A/California/4/09 H1N1 (Influenza A virus …); experiment: cell-based or functional assay
[19] = target: recombinant homotrimeric HA A/Hong Kong/2108/03 H9N2 (Influenza A virus A/HK/2108/2003(H9N2)); experiment: protein microarray, purified IgG, trimeric HA
[20] = target: recombinant homotrimeric HA A/northern shoveler/California/HKWF115/07 H6N4 (Influenza A virus A/northern …); experiment: protein microarray, purified IgG, trimeric HA
[21] = target: recombinant homotrimeric HA A/Anhui/1/05 H5N1 (Influenza A virus A/Anhui/1/2005(H5N1)); experiment: protein microarray, purified IgG, trimeric HA
[22] = target: recombinant homotrimeric HA A/Egypt/3300-NAMRU3/08 H5N1 (Influenza A virus …); experiment: protein microarray, purified IgG, trimeric HA
[23] = target: recombinant homotrimeric HA A/Netherlands/219/03 H7N7 (Influenza A virus …); experiment: protein microarray, purified IgG, trimeric HA
[24] = target: recombinant homotrimeric HA A/Hong Kong/156/97 H5N1 (Influenza A virus A/Hong Kong/156/97 …); experiment: protein microarray, purified IgG, trimeric HA
[25] = target: recombinant homotrimeric HA A/Japan/305/57 H2N2 (Influenza A virus A/Japan/305/1957(H2N2)); experiment: protein microarray, purified IgG, trimeric HA
[26] = target: recombinant homotrimeric HA A/California/4/09 H1N1 (Influenza A virus …); experiment: protein microarray, purified IgG, trimeric HA
[27] = target: recombinant homotrimeric HA A/Hong Kong/1073/99 H9N2 (Influenza A virus A/Hong Kong/1073/99 …); experiment: protein microarray, purified IgG, trimeric HA
[28] = target: recombinant homotrimeric HA A/chicken/Vietnam/NCVD-016/08 H5N1 (Influenza A virus …); experiment: protein microarray, purified IgG, trimeric HA
[29] = target: recombinant homotrimeric HA A/Vietnam/1203/04 H5N1 (Influenza A virus …); experiment: protein microarray, purified IgG, trimeric HA
[30] = target: recombinant homotrimeric HA A/South Carolina/1/18 H1N1 (Influenza A virus A/South Carolina/1/18 …); experiment: protein microarray, purified IgG, trimeric HA
[31] = target: recombinant homotrimeric HA A/Wisconsin/67/05 H3N2 (Influenza A virus …); experiment: protein microarray, purified IgG, trimeric HA
[32] = target: recombinant homotrimeric HA A/Indonesia/5/05 H5N1 (Influenza A virus …); experiment: protein microarray, purified IgG, trimeric HA
[33] = target: recombinant homotrimeric HA A/Solomon Islands/3/06 H1N1 (Influenza A virus A/Solomon …); experiment: protein microarray, purified IgG, trimeric HA
[34] = target: recombinant soluble homotrimeric HA of A/Netherlands/219/03 (H7N7) (Influenza A virus …); experiment: HA microarray, BCC supernatant
[35] = target: recombinant soluble homotrimeric HA of A/northern shoveler/California/HKWF115/07 (H6) (Influenza A virus A/northern …); experiment: HA microarray, BCC supernatant
[36] = target: recombinant soluble homotrimeric HA of A/swine/Ontario/01911-2/99 (H4N6) (Influenza A virus …); experiment: HA microarray, BCC supernatant
[37] = target: recombinant soluble homotrimeric HA of A/chicken/Vietnam/NCVD-016/08 (H5N1) (Influenza A virus …); experiment: HA microarray, BCC supernatant
[38] = target: recombinant soluble homotrimeric HA of A/California/4/09 (H1N1) (Influenza A virus …); experiment: HA microarray, BCC supernatant
[39] = target: recombinant soluble homotrimeric HA of A/Hong Kong/2108/03 (H9N2) (Influenza A virus A/HK/2108/2003(H9N2)); experiment: HA microarray, BCC supernatant
[40] = target: recombinant soluble homotrimeric HA of A/Indonesia/5/05 (H5N1) (Influenza A virus …); experiment: HA microarray, BCC supernatant
[41] = target: recombinant soluble homotrimeric HA of A/Solomon Islands/3/06 (H1N1) (Influenza A virus A/Solomon …); experiment: HA microarray, BCC supernatant
[42] = target: recombinant soluble homotrimeric HA of A/Anhui/1/05 (H5N1) (Influenza A virus A/Anhui/1/2005(H5N1)); experiment: HA microarray, BCC supernatant
[43] = target: recombinant soluble homotrimeric HA of A/Japan/305/57 (H2N2) (Influenza A virus A/Japan/305/1957(H2N2)); experiment: HA microarray, BCC supernatant
[44] = target: recombinant soluble homotrimeric HA of A/duck/Yangzhou/02/05 (H8N4) (Influenza A virus …); experiment: HA microarray, BCC supernatant
[45] = target: recombinant soluble homotrimeric HA of A/Vietnam/1203/04 (H5N1) (Influenza A virus …); experiment: HA microarray, BCC supernatant
[46] = target: recombinant soluble homotrimeric HA of A/Wisconsin/67/05 (H3N2) (Influenza A virus …); experiment: HA microarray, BCC supernatant

Binder	Trimeric HA Binding: RLU [1] [RLU]	Trimeric HA Binding: RLU [2] [RLU]	Trimeric HA Binding: RLU [3] [RLU]	Trimeric HA Binding: RLU [4] [RLU]	Trimeric HA Binding: RLU [5] [RLU]	Trimeric HA Binding: RLU [6] [RLU]	Trimeric HA Binding: RLU [7] [RLU]	Trimeric HA Binding: RLU [8] [RLU]	Trimeric HA Binding: RLU [9] [RLU]	Trimeric HA Binding: RLU [10] [RLU]	Trimeric HA Binding: RLU [11] [RLU]	Trimeric HA Binding: RLU [12] [RLU]	Trimeric HA Binding: RLU [13] [RLU]	Trimeric HA Binding: RLU [14] [RLU]	Trimeric HA Binding: RLU [15] [RLU]	% Neutralization [16] [%]	% Neutralization [17] [%]	% Neutralization [18] [%]	other results
B1	22700	23400	16600	22800	22400	17400	44700	34800	15200	13800	20900	43600	19300	32700	24600	0	15	0	
B2	18200	22400	18700	25900	27900	19500	55400	35900	17000	18600	31100	32100	16800	30500	29300	0	4	0	
B3																			Trimeric HA Binding: RLU [19]: 164 RLU; Trimeric HA Binding: RLU [20]: 20400 RLU; Trimeric HA Binding: RLU [21]: 5650 RLU; Trimeric HA Binding: RLU [22]: 20600 RLU; Trimeric HA Binding: RLU [23]: 712 RLU; Trimeric HA Binding: RLU [24]: 13200 RLU; Trimeric HA Binding: RLU [25]: 23400 RLU; Trimeric HA Binding: RLU [26]: 24000 RLU; Trimeric HA Binding: RLU [27]: 5810 RLU; Trimeric HA Binding: RLU [28]: 5470 RLU; Trimeric HA Binding: RLU [29]: 26900 RLU; Trimeric HA Binding: RLU [30]: 8670 RLU; Trimeric HA Binding: RLU [31]: 308 RLU; Trimeric HA Binding: RLU [32]: 23100 RLU; Trimeric HA Binding: RLU [33]: 12000 RLU
B4																			Trimeric HA Binding: RLU [34]: 48500 RLU; Trimeric HA Binding: RLU [35]: 42300 RLU; Trimeric HA Binding: RLU [36]: 41600 RLU; Trimeric HA Binding: RLU [37]: 46000 RLU; Trimeric HA Binding: RLU [38]: 49200 RLU; Trimeric HA Binding: RLU [39]: 49400 RLU; Trimeric HA Binding: RLU [40]: 35900 RLU; Trimeric HA Binding: RLU [41]: 38800 RLU; Trimeric HA Binding: RLU [42]: 49100 RLU; Trimeric HA Binding: RLU [43]: 46700 RLU; Trimeric HA Binding: RLU [44]: 44700 RLU; Trimeric HA Binding: RLU [45]: 44000 RLU; Trimeric HA Binding: RLU [46]: 49100 RLU
